The values that follow come from patent publication US20240132578A1.

Where only a bound is given, the exact number is not on record here.

Test in all cases: cell-based or functional assay
The target in assay [1] is HIV-1 Env of pseudovirus MGRM-F1-017 (clade F) (HIV-1).
Assay [2] concerns the target HIV-1 Env of isolate MGRM-A-014 (clade A pseudovirus) (HIV-1).
Assay [3] deals with HIV-1 envelope glycoprotein (Env) of isolate MGRM-C-015 (HIV-1).
The target of assay [4] is HIV-1 Env of isolate MGRM-D-014 (clade D pseudovirus) (HIV-1).
Assay [5] deals with HIV-1 Env of isolate 92RW009 (clade A pseudovirus) (HIV-1).
Assay [6] deals with HIV-1 92RW024 envelope glycoprotein (Env) on pseudovirus (HIV-1 (clade A)).
Assay [7] concerns the target HIV-1 Env of isolate MGRM-Chronic-B-001, clade B (HIV-1).
The target of assay [8] is HIV-1 MGRM-AE-003 Env (pseudovirus) (HIV-1).
Assay [9] addresses HIV-1 93UG077 envelope (Env) on pseudovirus (HIV-1).
The target in assay [10] is HIV-1 Env of isolate MGRM-D-026 (clade D pseudovirus) (HIV-1).
The target in assay [11] is HIV-1 Env of isolate 94UG103 (Clade A) (HIV-1).
Assay [12] has as its target HIV-1 Env of pseudovirus MGRM-G-028 (HIV-1).
For assay [13], the target named is HIV-1 Env of pseudovirus MGRM-F1-016 (clade F) (HIV-1).
Assay [14] concerns the target HIV-1 Env of isolate 93RW029 (clade A pseudovirus) (HIV-1).
In assay [15] the target is HIV-1 Env of pseudovirus MGRM-F1-014 (clade F) (HIV-1).
Assay [16] has as its target HIV-1 envelope glycoprotein (Env) of isolate MGRM-C-022 (HIV-1).
Assay [17] deals with HIV-1 Env of isolate JRCSF (Clade B) (HIV-1) (UniProt P20871).
Assay [18] has as its target HIV-1 envelope glycoprotein (Env) of isolate MG RM-AG-003 (HIV-1).
Assay [19] concerns the target HIV-1 envelope glycoprotein (Env) of isolate MG RM-AG-008 (HIV-1).
Assay [20] concerns the target HIV-1 Env of pseudovirus MGRM-D-019 (HIV-1).
Assay [21] deals with HIV-1 Env of pseudovirus MGRM-F1-004 (HIV-1).
Assay [22] addresses HIV-1 Env of isolate MGRM-C-028 (subtype C), on pseudovirus (HIV-1).
The target in assay [23] is HIV-1 Env of isolate MGRM-G-011 (subtype G) (HIV-1).
For assay [24], the target named is HIV-1 Env of isolate MG RM-A-012 (pseudovirus) (HIV-1).
The target in assay [25] is HIV-1 Env of isolate MGRM-C-024 (subtype C), on pseudovirus (HIV-1).
Assay [26] has as its target HIV-1 92BR020 Env (HIV-1).
Assay [27] addresses HIV-1 Env of isolate MGRM-Chronic-B-001 (HIV-1).
In assay [28] the target is HIV-1 Env of isolate MGRM-AG-002 (subtype AG) (HIV-1).
Assay [29] deals with HIV-1 Env of isolate MGRM-AE-001 (subtype AE) (HIV-1).
Assay [30] addresses HIV-1 Env of isolate 92UG005 (pseudovirus) (HIV-1).
Assay [31] addresses HIV-1 Env of isolate MGRM-A-014 (subtype A) (HIV-1).
Assay [32] concerns the target HIV-1 Env of isolate MGRM-D-001 (pseudovirus) (HIV-1).
The target in assay [33] is HIV-1 MGRM-D-001 envelope protein (Env) on pseudovirus (HIV-1).
The target of assay [34] is HIV-1 Env of pseudovirus isolate MGRM-C-019 (clade C) (HIV-1).
Assay [35] has as its target HIV-1 Env of isolate MGRM-D-028 (HIV-1).
For assay [36], the target named is HIV-1 Env of isolate MGRM-D-014 (pseudovirus) (HIV-1).
Assay [37] addresses HIV-1 Env of isolate MGRM-AE-008 (subtype AE) (HIV-1).
Assay [38] deals with HIV-1 Env of pseudovirus isolate MGRM-C-013 (clade C) (HIV-1).
Assay [39] deals with HIV-1 JR-CSF Env T413A (HIV-1 (isolate JR-CSF)) (UniProt P20871).
The target of assay [40] is HIV-1 Env of isolate 92WR009 (pseudovirus) (HIV-1).
In assay [41] the target is HIV-1 Env of isolate MGRM-A-007 (subtype A) (HIV-1).

PGT-141 (4964_G22; 4993_K13) (antibody), sequence (VH): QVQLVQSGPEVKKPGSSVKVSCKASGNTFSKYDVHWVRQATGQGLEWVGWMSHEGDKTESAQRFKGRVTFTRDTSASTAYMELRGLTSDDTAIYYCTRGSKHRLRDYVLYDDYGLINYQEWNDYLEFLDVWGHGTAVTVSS
PGT-141 (4964_G22; 4993_K13) (antibody), sequence (VL): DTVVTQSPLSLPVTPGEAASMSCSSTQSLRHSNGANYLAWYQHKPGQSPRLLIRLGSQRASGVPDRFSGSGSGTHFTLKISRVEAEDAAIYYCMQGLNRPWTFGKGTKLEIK
PGT-143 (4980_N08) (antibody), sequence (VH): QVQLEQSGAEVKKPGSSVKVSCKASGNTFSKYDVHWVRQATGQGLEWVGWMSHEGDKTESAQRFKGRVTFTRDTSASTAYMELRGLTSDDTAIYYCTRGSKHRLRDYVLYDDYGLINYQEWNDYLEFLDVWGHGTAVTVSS
PGT-143 (4980_N08) (antibody), sequence (VL): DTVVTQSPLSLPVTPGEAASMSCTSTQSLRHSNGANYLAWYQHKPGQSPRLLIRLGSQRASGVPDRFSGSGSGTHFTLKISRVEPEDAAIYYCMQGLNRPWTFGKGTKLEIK
PGT-145 (4995_P16) (antibody), sequence (VH): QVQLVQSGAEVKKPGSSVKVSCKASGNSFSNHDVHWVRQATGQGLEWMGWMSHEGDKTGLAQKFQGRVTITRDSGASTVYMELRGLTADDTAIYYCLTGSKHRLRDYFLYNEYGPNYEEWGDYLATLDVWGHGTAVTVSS
PGT-145 (4995_P16) (antibody), sequence (VL): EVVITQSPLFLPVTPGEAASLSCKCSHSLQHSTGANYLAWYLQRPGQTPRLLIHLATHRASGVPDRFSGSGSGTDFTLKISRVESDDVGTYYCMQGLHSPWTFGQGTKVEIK
PGT-144 (4970_K22) (antibody), sequence (VH): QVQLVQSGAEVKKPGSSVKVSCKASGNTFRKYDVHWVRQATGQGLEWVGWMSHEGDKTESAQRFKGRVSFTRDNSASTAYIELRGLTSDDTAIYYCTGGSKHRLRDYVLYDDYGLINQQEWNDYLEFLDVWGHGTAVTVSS
PGT-144 (4970_K22) (antibody), sequence (VL): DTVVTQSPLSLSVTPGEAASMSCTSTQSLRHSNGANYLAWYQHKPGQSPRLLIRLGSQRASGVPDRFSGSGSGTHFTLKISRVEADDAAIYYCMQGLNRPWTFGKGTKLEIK
PGT-142 (4995_E20) (antibody), sequence (VH): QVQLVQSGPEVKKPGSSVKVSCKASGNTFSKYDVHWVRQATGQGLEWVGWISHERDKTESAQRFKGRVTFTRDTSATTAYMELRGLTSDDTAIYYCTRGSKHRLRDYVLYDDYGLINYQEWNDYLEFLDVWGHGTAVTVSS

By IC50 is commonly meant the midpoint of a concentration-inhibition curve. As to 2G12 (antibody), the IC50 in assay [1], in assay [13] and in assay [15] was over 50 µg/mL throughout. Also, the IC50 (µg/ml), pseudovirus neutralization was over 50 µg/mL in [2]; 1.75 µg/mL in [3]; 26.1 µg/mL in [5]; over 50 µg/mL in [6]; 0.08 µg/mL in assay [7]; over 50 µg/mL in [8]. The IC50 (µg/ml), pseudovirus neutralization is 28.2 µg/mL in assay [12], over 50 µg/mL in [14] and over 50 µg/mL in assay [16]. Also, the IC50, pseudovirus neutralization in [4] and in assay [10] was over 50 µg/mL throughout. In [9], the neutralization IC50 was over 50 µg/mL. In addition, the IC90 (neutralization of pseudovirus) in assay [11] was over 50 µg/mL; in [17], 5.38 µg/mL.
Regarding b12 (antibody), the IC50 in [1], in assay [13] and in [15] was over 50 µg/mL throughout. Further, the IC50 (µg/ml), pseudovirus neutralization in assay [2] was over 50 µg/mL; in assay [3], 13.3 µg/mL; in assay [5], over 50 µg/mL; in [6], over 50 µg/mL; in assay [7] it was 0.75 µg/mL; in [8], over 50 µg/mL. Besides, the IC50 (µg/ml), pseudovirus neutralization in assay [12], in [14] and in assay [16] was over 50 µg/mL each time. In addition, the results for the IC50, pseudovirus neutralization in [4] and in [10] were over 50 µg/mL and 1.55 µg/mL, respectively. This substance showed a neutralization IC50 in [9] of 41.1 µg/mL. Besides, the values for the IC90 (neutralization of pseudovirus) in assay [11] and in [17] were 47.3 µg/mL and 1.17 µg/mL, respectively.
For 1495_C14 (PGC14) (antibody), the half-inhibitory concentration (IC50) in [1], in assay [13] and in assay [15] was over 50 µg/mL in each case. The IC50 (µg/ml), pseudovirus neutralization in [2], in assay [3], in assay [5], in [6], in assay [7] and in assay [8] was over 50 µg/mL in each case. In addition, the figures for the IC50 (µg/ml), pseudovirus neutralization in [12], in assay [14] and in [16] were over 50 µg/mL, 42 µg/mL and over 50 µg/mL, respectively. The IC50, pseudovirus neutralization is 48 µg/mL in [4] and over 50 µg/mL in [10]. In assay [9], the neutralization IC50 is over 50 µg/mL.
For PGT-142 (4995_E20) (antibody), the results for the concentration for half-maximal inhibition (IC50) in [18] and in [19] were over 50 µg/mL and 12.1 µg/mL, respectively. For the same substance, the IC50, pseudovirus neutralization in assay [20] amounted to 0.155 µg/mL; in [21], 0.013 µg/mL.
VRC01 (antibody): the concentration for half-maximal inhibition (IC50) in assay [18] came to 0.043 µg/mL; in assay [19], 0.124 µg/mL. Further, the IC50, single-round pseudovirus neutralization worked out at 0.319 µg/mL in assay [22] and 3.4 µg/mL in assay [25]. The IC50, pseudovirus neutralization in assay [20] stood at 0.119 µg/mL; in [21], 0.305 µg/mL. This substance also yielded an IC50 (µg/mL), pseudovirus neutralization in assay [23] of 0.065 µg/mL. In assay [24], this substance registered an IC50 (µg/mL), single-round pseudovirus neutralization of over 50 µg/mL.
In the case of PGT-143 (4980_N08) (antibody), the half-inhibitory concentration (IC50) in [18] is over 50 µg/mL; in assay [19], 34 µg/mL. For the same substance, the IC50, pseudovirus neutralization in [20] is 0.277 µg/mL; in assay [21], 0.036 µg/mL.
Take PGT-145 (4995_P16) (antibody): the figures for the IC50 in assay [18] and in assay [19] were over 50 µg/mL and 0.244 µg/mL, respectively. In addition, the results for the IC50, pseudovirus neutralization in assay [20] and in [21] were 0.111 µg/mL and 0.361 µg/mL, respectively.
For 5343_B08 (PGT-135) (antibody), the IC50, pseudovirus neutralization in assay [26] is 0.104 µg/mL; in [28], over 50 µg/mL; in assay [29] it was over 50 µg/mL; in assay [31], 0.636 µg/mL; in [34], 0.264 µg/mL; in assay [37], over 50 µg/mL. The IC50, pseudovirus neutralization in assay [38] and in [41] was over 50 µg/mL each time. Further, the IC50 (µg/mL), pseudovirus neutralization in assay [27] is over 50 µg/mL; in assay [30], over 50 µg/mL; in assay [32] it was over 50 µg/mL; in [35] it was over 50 µg/mL; in assay [36] it was 2.21 µg/mL; in assay [40], over 50 µg/mL. The same substance came in with an IC50 (ug/mL), pseudovirus neutralization in [33] of over 10 µg/mL. The substance further yielded a Fold IC50 increase relative to wild-type (pseudovirus neutralization) in assay [39] of 0.3 fold.
As for 5329_C19 (PGT-136) (antibody), the IC50, pseudovirus neutralization is over 10 µg/mL in assay [26]; over 50 µg/mL in assay [28]; over 50 µg/mL in assay [29]; over 50 µg/mL in assay [31]; 20.1 µg/mL in assay [34]; over 50 µg/mL in [37]. Besides, the IC50, pseudovirus neutralization in assay [38] and in [41] was over 50 µg/mL throughout. Also, the IC50 (µg/mL), pseudovirus neutralization in assay [27], in assay [30], in assay [32], in assay [35], in [36] and in [40] was over 50 µg/mL in each case. In assay [33], this substance showed an IC50 (ug/mL), pseudovirus neutralization of over 10 µg/mL.
In the case of 5147_N06 (PGT-130) (antibody), the IC50, pseudovirus neutralization is 1.12 µg/mL in assay [26]; over 50 µg/mL in assay [28]; 1 µg/mL in [29]; 0.161 µg/mL in assay [31]; 0.01 µg/mL in assay [34]; over 50 µg/mL in assay [37]. The IC50, pseudovirus neutralization in [38] and in assay [41] was over 50 µg/mL throughout. For the same substance, the IC50 (µg/mL), pseudovirus neutralization in [27] was over 50 µg/mL; in assay [30], 0.959 µg/mL; in assay [32], over 50 µg/mL; in assay [35], 0.825 µg/mL; in assay [36], 0.061 µg/mL; in assay [40], 1.27 µg/mL. The IC50 (ug/mL), pseudovirus neutralization in assay [33] is over 10 µg/mL. In [39], this substance gave a Fold IC50 increase relative to wild-type (pseudovirus neutralization) of 0.6 fold.
In the case of PGT-141 (4964_G22; 4993_K13) (antibody), the IC50 in assay [18] is over 50 µg/mL; in assay [19], 19.2 µg/mL. The IC50, pseudovirus neutralization in assay [20] stood at 1.66 µg/mL; in assay [21], 0.021 µg/mL.
In the case of PGT-144 (4970_K22) (antibody), the IC50 in assay [18] and in assay [19] was over 50 µg/mL each time. Moreover, the IC50, pseudovirus neutralization in [20] is over 50 µg/mL; in assay [21], 0.105 µg/mL.
